Test results as given in PMC11903750.

What was measured:
[1] = target: 30S ribosomal subunit (E. coli) (UniProt P0A7R9); test: FRET or BRET; as a4, with 5 µM edeine
[2] = target: 30S ribosomal subunit (E. coli) (UniProt P0A7R9); test: FRET or BRET; as a4, with 5 µM GE81112

fold reduction of koff with edeine against no antibiotic [1]: 4 fold | fold reduction of koff with GE81112 against no antibiotic [2]: 2 fold
Substance: IF3 E166C, double-labelled (IF3DL) (from UniProt P0A707 1-180) (natural protein)
